One series concerns granulocytes. The series can be described thus: Granulocyte activation (production of superoxide anions after stimulation with zymosan or PMA). Format: cell-based. As for the experimental part: The samples are those collected 3 hours after pleurisy.
Reagent control: PBS^+ (0.65 ml)+cytochrome C 5 mg/ml (0.15 ml).
Cell control: PBS^+ (0.65 ml)+cytochrome C 5 mg/ml (0.15 ml)+G 10 M/ml (0.2 ml).
Test: PBS^+ (0.45 ml)+cytochrome C 5 mg/ml (0.15 ml)+ZO or PMA (0.2 ml), with: NaCl control (column 1), SOD (column 2), Ceramide control (column 3), SOD+ceramides (column 4), Liposome control (column 5), Liposomal SOD (column 6).
Incubate for 15 minutes in a water bath at 37° C., with shaking,
stop the reaction for 10 minutes in an ice bath,
centrifuge for 5 minutes at 2000 rpm.

In the next series the test system is rat paw oedema. The series can be described thus: λ carrageenan-induced paw oedema after oral administration (gavage). Format: in vivo. The settings on record: dose of 0.5 mg/kg. As for the experimental part:
To study the comparative kinetics of the anti-inflammatory action of a free form of SOD and a composition according to the invention, at different concentrations.
2 gavages are performed per day (morning and evening).
Injection of 0.1 ml of λ carrageenan 1% in the paw pad.
The measurements are made every hour for 6 hours.
Background: Carrageenan injected into the paw causes an acute inflammation.

Series [1] in a line: Erythrocyte SOD kinetics in anaesthetized rats after subcutaneous administration. Details: species or system rat (male OFA, Sprague-Dawley). The settings on record: rat, in vivo, sc. As for the experimental part: (§1) The kinetics of the plasmatic SOD are analyzed in anaesthetized rats after the oral or subcutaneous administration of free SOD, liposomal SOD or SOD in the form of a composition according to the invention.
(§2) The rats used are male OFA, Sprague-Dawley rats which are devoid of pathogenic germs, weigh 300 to 400 g and are not of the same blood type (IFFA CREDO breed).
Subcutaneous administration:
bovine erythrocyte SOD (Allerbiodose®) 0.5-1-2 mg/ml, in NaCl 0.9%,
bovine erythrocyte SOD 0.5-1-2 mg/ml+plant ceramides 1% (Inocosm), in NaCl 0.9%, according to the invention,
liposomal bovine erythrocyte SOD 0.5-1-2 mg/ml,
(§3) bovine erythrocyte SOD+gliadin, according to the invention.
The solutions or suspensions to be studied are administered at T0 by the injection of a volume of 0.3 ml (in 0.9% NaCl solution) behind the animal's head (n=4).
(§4) Each series of experiments is carried out on 4 animals per dose, the control groups always being treated in parallel for each experiment.
(§5) Once the gavage (or the subcutaneous injection) has been performed on the animals, the latter are anaesthetized by the slow intraperitoneal injection of thiopental (0.1 ml/100 g).
The samples are taken every hour for 6 hours (400 μl) via the one-way tap. The blood is collected in heparinated Eppendorf tubes (20 μl of heparin 1000 IU/ml). It is then centrifuged for 5 min at 4000 rpm. […]

A short description of series [2]: Erythrocyte SOD kinetics in anaesthetized rats after oral administration (gavage). The note with it: rat, in vivo. On the set-up: species or system rat (male OFA, Sprague-Dawley). As for the experimental part:
as §1, §2
bovine erythrocyte SOD (Allerbiodose®) 1-2-4 mg/ml, in NaCl 0.9%,
bovine erythrocyte SOD 1-2-4 mg/ml+plant ceramides 1% (Inocosm), in NaCl 0.9%, according to the invention,
liposomal bovine erythrocyte SOD 1-2-4 mg/ml,
as §3
The gavage is performed on the animals (n=4) at T0 with a volume of 1 ml of solution or suspension to be studied, in 0.9% NaCl solution. This gavage is performed using a cannula mounted on a 1 ml syringe and introduced into the buccal cavity of the rat.
as §4, §5
The samples are taken every hour for 6 hours (400 μl) via the one-way tap. The blood is collected in heparinated Eppendorf tubes (20 μl of heparin 1000 IU/ml). It is then centrifuged for 5 min at 4000 rpm. The plasma is then discarded and replaced with NaCl 0.9%. The tubes are centrifuged again for 5 min at 4000 rpm. The red blood cells are thus washed three times in succession.
The assays of the enzymatic activity of the erythrocyte SOD (of each form) are performed on each control or treated sample.
The erythrocytes are appropriately diluted in distilled water (+0.5 ml of 1% Triton solution) so that the inhibition obtained in the study tube is about 50% of that in the control tube.
The results obtained in IU SOD/ml are reported in IU SOD/mg haemoglobin. The haemoglobin is assayed by spectrophotometry at 405 nm.

Take “SOD: bovine erythrocyte SOD (Allerbiodose®), in NaCl 0.9%”: in the series with granulocytes (by oral administration), the “Significance (P) of the anti-inflammatory role” value is given as less than 0.05. Further, the “Effect of oral administration on granulocyte activation (in words)” value in the series with granulocytes (oral administration, FIGS. 18 to 20) is “inhibitory effect”. The “Number of gavages from which the anti-inflammatory effect is observed” value in the series on rat paw oedema is given as no less than 4 gavages. Further, the “Cmax (comparison in words)” value in series [1] is listed as “slightly lower”. In series [2], the “Cmax (comparison in words)” value was “lower”, the “Concentrations/passage of SOD after oral administration (in words)” value is reported as “reaches high concentrations when administered orally” and the Tmax entry is “around 5 hours”.
